Results taken from article PMC10638095, “Visualization of conformational transition of GRP94 in solution” (Life Science Alliance, 2023).

Target: the molecule itself
Assay: SEC-SAXS; inline SEC-SAXS; 25 mM HEPES pH 8.0, 200 mM NaCl, 1 mM TCEP, with or without 1 mM ADP or AMPPNP; 25°C; 10 mg/ml protein, 100 μl injected; scattering fitted with dimer models (EOM, OLIGOMER)

B1: mouse GRP94 (22-754) (natural protein, UniProt P08113 22-754, looked up)
chain: DDEVDVDGTVEEDLGKSREGSRTDDEVVQREEEAIQLDGLNASQIRELREKSEKFAFQAEVNRMMKLIINSLYKNKEIFLRELISNASDALDKIRLISLTDENALAGNEELTVKIKCDKEKNLLHVTDTGVGMTREELVKNLGTIAKSGTSEFLNKMTEAQEDGQSTSELIGQFGVGFYSAFLVADKVIVTSKHNNDTQHIWESDSNEFSVIADPRGNTLGRGTTITLVLKEEASDYLELDTIKNLVRKYSQFINFPIYVWSSKTETVEEPLEEDEAAKEEKEESDDEAAVEEEEEEKKPKTKKVEKTVWDWELMNDIKPIWQRPSKEVEEDEYKAFYKSFSKESDDPMAYIHFTAEGEVTFKSILFVPTSAPRGLFDEYGSKKSDYIKLYVRRVFITDDFHDMMPKYLNFVKGVVDSDDLPLNVSRETLQQHKLLKVIRKKLVRKTLDMIKKIADEKYNDTFWKEFGTNIKLGVIEDHSNRTRLAKLLRFQSSHHSTDITSLDQYVERMKEKQDKIYFMAGSSRKEAESSPFVERLLKKGYEVIYLTEPVDEYCIQALPEFDGKRFQNVAKEGVKFDESEKTKESREATEKEFEPLLNWMKDKALKDKIEKAVVSQRLTESPCALVASQYGWSGNMERIMKAQAYQTGKDISTNYYASQKKTFEINPRHPLIRDMLRRIKEDEDDKTVMDLAVVLFETATLRSGYLLPDTKAYGDRIERMLRLSLNIDPEAQ
notes: GRP94 (endoplasmin), mouse, residues 22-754, with the full pre-N domain and the charged linker region preserved; The N-terminal Strep-tag II is followed by a thrombin site; no thrombin cleavage is described; The C-terminal 6xHis tag was removed with TEV protease; also called mGRP94; mGrp94; source: E. coli BL21 (DE3), purified (Histrap HP, TEV cleavage, Hitrap Q HP, second Histrap HP …)
binding result: binds
